To fix the notation:
B1: Venus-His-Sumo-tagged talin R4–R8 domain (domain or fragment, mouse, UniProt P26039 913-1655, looked up)
chain: LVQRLEHAAKQAAASATQTIAAAQHAASAPKASAGPQPLLVQSCKAVAEQIPLLVQGVRGSQAQPDSPSAQLALIAASQSFLQPGGKMVAAAKASVPTIQDQASAMQLSQCAKNLGTALAELRTAAQKAQEACGPLEMDSALSVVQNLEKDLQEIKAAARDGKLKPLPGETMEKCTQDLGNSTKAVSSAIAKLLGEIAQGNENYAGIAARDVAGGLRSLAQAARGVAALTSDPAVQAIVLDTASDVLDKASSLIEEAKKASGHPGDPESQQRLAQVAKAVTQALNRCVSCLPGQRDVDNALRAVGDASKRLLSDSLPPSTGTFQEAQSRLNEAAAGLNQAATELVQASRGTPQDLARASGRFGQDFSTFLEAGVEMAGQAPSQEDRAQVVSNLKGISMSSSKLLLAAKALSTDPASPNLKSQLAAAARAVTDSINQLITMCTQQAPGQKECDNALRQLETVRELLENPVQPINDMSYFGCLDSVMENSKVLGEAMTGISQNAKNGNLPEFGDAIATASKALCGFTEAAAQAAYLVGVSDPNSQAGQQGLVEPTQFARANQAIQMACQSLGEPGCTQAQVLSAATIVAKHTSALCNSCRLASARTANPTAKRQFVQSAKEVANSTANLVKTIKALDGDFTEENRAQCRAATAPLLEAVDNLSAFASNPEFSSVPAQISPEGRAAMEPIVISAKTMLESAGGLIQTARALAVNPRDPPRWSVLAGHSRTVSDSIKKLITSMRDKA

Assay [1] concerns the target B1. The assay is described as follows: pull-down.
The target of another assay is T1, recombinant FL-Kank2 (mouse, UniProt Q8BX02 1-843).
T1 sequence (looked up): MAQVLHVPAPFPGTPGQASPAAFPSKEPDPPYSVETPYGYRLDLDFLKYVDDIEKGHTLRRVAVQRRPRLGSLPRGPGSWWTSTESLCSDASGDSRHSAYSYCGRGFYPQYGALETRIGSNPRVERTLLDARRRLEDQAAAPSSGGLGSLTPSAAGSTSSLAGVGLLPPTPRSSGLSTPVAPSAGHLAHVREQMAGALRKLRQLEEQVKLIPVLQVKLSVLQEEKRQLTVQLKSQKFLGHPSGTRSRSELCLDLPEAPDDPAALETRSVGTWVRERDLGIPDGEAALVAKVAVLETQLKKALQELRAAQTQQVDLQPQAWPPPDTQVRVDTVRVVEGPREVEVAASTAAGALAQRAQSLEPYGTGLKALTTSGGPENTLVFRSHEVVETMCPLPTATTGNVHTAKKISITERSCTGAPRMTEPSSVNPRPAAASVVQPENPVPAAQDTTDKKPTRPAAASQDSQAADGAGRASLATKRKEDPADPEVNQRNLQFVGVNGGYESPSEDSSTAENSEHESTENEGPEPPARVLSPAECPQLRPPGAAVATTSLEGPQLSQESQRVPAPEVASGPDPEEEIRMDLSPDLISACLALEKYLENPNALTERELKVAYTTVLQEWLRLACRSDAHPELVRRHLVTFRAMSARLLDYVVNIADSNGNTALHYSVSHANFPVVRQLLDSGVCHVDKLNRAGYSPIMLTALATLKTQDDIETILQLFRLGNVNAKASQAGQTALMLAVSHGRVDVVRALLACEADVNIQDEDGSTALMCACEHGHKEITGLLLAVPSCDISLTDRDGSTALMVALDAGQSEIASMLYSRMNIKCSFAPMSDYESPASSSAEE
As to the kind of experiment: pull-down.

Take DPPYSVETPYGYRLDLDFLKYVDDIEKGHTLRRVAVQRRPRLGS (domain or fragment, mouse, UniProt Q8BX02 29-72, looked up) [GST-tagged Kank2-KN (amino acids 29–72)]: the binding result in assay [1] is “binds”.

Take B1: in the assay with recombinant FL-Kank2, the binding result is given as “binds”.

The values are drawn from paper PMC6053543 (Nature cell biology, 2016).
